Assay results published in PMC2191386 (The Journal of Experimental Medicine, 1994).

Molecular target: T1, LFA-3, purified (human (endogenous in JY), UniProt P19256 29-250)
T1 sequence (looked up): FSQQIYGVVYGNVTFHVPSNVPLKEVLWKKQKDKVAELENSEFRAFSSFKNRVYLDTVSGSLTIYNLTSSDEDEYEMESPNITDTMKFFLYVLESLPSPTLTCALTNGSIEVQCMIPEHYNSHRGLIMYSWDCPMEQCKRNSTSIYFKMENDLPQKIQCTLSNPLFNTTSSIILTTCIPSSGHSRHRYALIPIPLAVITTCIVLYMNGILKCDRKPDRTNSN
Experiment: cell adhesion to purified protein

B1: CD2 on SKW3 cells (receptor, human (endogenous in SKW3), UniProt P06729 25-351, looked up)
chain: KEITNALETWGALGQDINLDIPSFQMSDDIDDIKWEKTSDKKKIAQFRKEKETFKEKDTYKLFKNGTLKIKHLKTDDQDIYKVSIYDTKGKNVLEKIFDLKIQERVSKPKISWTCINTTLTCEVMNGTDPELNLYQDGKHLKLSQRVITHKWTTSLSAKFKCTAGNKVSKESSVEPVSCPEKGLDIYLIIGICGGGSLLMVFVALLVFYITKRKKQRSRRNDEELETRAHRVATEERGRKPHQIPASTPQNPATSQHPPPPPGHRSQAPSHRPPPPGHRVQHQPQKRPPAPSGTQVHQQKGPPLPRPRVQPKPPHGAAENSLSPSSN
  fold increase of cell binding on PMA stimulation: 3 fold
